Target: carcinoembryonic antigen (CEA) (UniProt P06731 35-685)
Assay: electrochemical aptasensor (DPV, Fe(CN)6 3-/4- probe); aptamer immobilized on BSA-blocked NH2-VMSF/p-SPCE; linear range 100 fg/mL-100 ng/mL, LOD 24 fg/mL (not an affinity); aptamer immobilized in 0.01 M PBS pH 7.4 (4 C, 90 min), BSA block 0.1 wt%; CEA incubation 60 min; CEA binding buffer and temperature not in the material
Details: protein: commercial

Sequence of carcinoembryonic antigen (CEA) (P06731 35-685): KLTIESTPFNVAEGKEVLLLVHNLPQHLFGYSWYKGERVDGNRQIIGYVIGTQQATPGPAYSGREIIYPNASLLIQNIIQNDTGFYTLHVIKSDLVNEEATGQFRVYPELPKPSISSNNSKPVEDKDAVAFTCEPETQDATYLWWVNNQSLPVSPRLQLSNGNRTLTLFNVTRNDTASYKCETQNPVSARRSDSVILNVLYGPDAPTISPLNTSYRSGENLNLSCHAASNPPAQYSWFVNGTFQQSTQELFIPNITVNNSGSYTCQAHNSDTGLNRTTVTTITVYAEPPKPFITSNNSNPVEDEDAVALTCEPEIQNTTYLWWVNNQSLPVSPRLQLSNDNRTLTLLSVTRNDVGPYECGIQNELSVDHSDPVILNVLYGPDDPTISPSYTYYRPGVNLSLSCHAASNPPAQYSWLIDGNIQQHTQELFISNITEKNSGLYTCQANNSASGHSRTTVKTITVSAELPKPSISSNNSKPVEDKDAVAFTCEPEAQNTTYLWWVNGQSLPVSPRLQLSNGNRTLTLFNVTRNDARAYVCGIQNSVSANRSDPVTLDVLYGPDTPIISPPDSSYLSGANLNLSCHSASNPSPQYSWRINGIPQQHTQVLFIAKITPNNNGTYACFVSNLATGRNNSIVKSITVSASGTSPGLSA

ATACAGCTTCAATT (ssDNA, 3'-NH2) [amino-modified CEA aptamer (Apt)]
binding result: binds
